T1: DLL3 on cells (SHP-77, NCI-H82, HEK-DLL3, membrane proteome array cells) (human, UniProt Q9NYJ7 27-618)
T1 construct: whole, on cells; also called hDLL3
T1 sequence (looked up): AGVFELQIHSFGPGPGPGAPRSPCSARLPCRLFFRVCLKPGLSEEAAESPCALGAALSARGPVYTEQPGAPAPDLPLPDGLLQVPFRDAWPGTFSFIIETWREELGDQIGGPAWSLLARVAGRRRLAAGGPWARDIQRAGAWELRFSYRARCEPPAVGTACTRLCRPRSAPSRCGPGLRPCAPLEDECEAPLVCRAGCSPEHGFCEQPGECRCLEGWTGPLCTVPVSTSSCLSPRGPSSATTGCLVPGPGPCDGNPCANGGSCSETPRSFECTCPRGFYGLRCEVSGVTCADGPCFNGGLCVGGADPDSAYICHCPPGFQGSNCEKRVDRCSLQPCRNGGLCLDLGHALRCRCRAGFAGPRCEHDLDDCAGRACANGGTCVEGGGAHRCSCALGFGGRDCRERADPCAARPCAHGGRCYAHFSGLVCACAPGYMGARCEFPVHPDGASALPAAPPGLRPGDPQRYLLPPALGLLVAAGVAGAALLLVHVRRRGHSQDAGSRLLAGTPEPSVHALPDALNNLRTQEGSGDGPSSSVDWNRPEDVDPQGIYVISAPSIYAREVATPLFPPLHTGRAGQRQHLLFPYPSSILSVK

T2: DLL3 ECD (human, UniProt Q9NYJ7)
T2 construct: recombinant ECD aa 27-492; also called full length DLL3 ECD (aa 27-492, Cat #ab255797, Abcam); human DLL3.HIS
T2 sequence (antigen, looked up): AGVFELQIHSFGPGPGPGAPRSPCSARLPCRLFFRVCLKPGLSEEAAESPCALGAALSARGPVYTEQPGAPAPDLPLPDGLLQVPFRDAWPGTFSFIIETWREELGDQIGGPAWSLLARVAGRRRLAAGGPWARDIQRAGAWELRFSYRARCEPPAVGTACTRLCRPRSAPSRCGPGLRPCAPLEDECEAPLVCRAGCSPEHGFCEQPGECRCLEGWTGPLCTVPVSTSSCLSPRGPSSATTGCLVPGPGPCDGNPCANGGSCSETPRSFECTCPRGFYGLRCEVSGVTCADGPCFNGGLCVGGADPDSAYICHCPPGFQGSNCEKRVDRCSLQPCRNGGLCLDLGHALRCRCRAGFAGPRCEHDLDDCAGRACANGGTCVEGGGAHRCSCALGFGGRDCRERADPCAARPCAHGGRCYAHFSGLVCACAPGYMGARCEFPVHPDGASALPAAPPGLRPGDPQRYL


Tests used:
[1] = target: T1, DLL3 on cells (SHP-77, NCI-H82, …); assay: flow cytometry on DLL3 expressing SHP-77 cells
[2] = target: T2, DLL3 ECD; assay: ELISA on coated full length DLL3 ECD (2 ug/ml), anti-hIgG-Fc-HRP, A450

binding result [1] | EC50 (read off the curve) [2] [nM] | Binder
binds | – | 126_zu1 (Fc fusion, Humanized VHHFc) QVQLVESGGGLVQPGGSLRLSCAASGITFSMYSMSWFRQAPGQGLEAVAATTTFGSTNYADSVKGRFTISRDNSKNTLYLQMNSLRAEDTAVYYCAARFTSEEYWGQGTLVTVSSEPKSSDKTHTCPPCPAPEAEGAPSVFLFPPKPKDTLMISRTPEVTCVVVDVSHEDPEVKFNWYVDGVEVHNAKTKPREEQYNSTYRVVSVLTVLHQDWLNGKEYKCKVSNKALPSSIEKTISKAKGQPREPQVYTLPPSREEMTKNQVSLTCLVKGFYPSDIAVEWESNGQPENNYKTTPPVLDSDGSFFLYSKLTVDKSRWQQGNVFSCSVMHEALHNQYTQKSLSLSPG
– | ~0.8 | Sc16.23 (antibody, V domains shown) VH: QVTLKESGPGILQPSQTLSLTCSFSGFSLSTSNTGIGWIRQPSGTGLEWLAHIWWNDDKYYNPSLKSRLTISKETSNNQVFLKITNVDTADTASYFCVQIGRDYSNYAWYFDVWGAGTTVTVSS VL: QIVLTQSPAIMSASPGEKVTLTCSASSSVSSRYLYWYQQKPGSSPKLWIYSTSNLASGVPARFSGSGSGTSYSLIISSMEAEDAASYFCHQWSNYPLTFGAGTKLELK

Reference: patent publication US20250051476A1 (ABDERA THERAPEUTICS, published 2025)
